# Assay results: US7906485B2, “Erythropoietin receptor peptide formulations and uses” (Affymax, Inc., priority 2005, dated 2011)
# Bridge positions count the residues as written; N and C are the ends. Square brackets hold non-standard residues; d marks the D form. Ends that are not written are not given here. 1Nal = N[C@@H](Cc1cccc2ccccc12)C(=O)O; Sar = CNCC(=O)O
# T1: Recombinant Human EPO R/Fc Chimera (human, UniProt P19235 25-250)
# T1 construct: extracellular domain; Bought: R&D Systems, catalog number 963-ER; also called recombinant EPOr extracellular domain fused to the Fc portion of human IgG1; recombinant erythropoietin receptor; not shown: Fc portion of human IgG1
# T1 sequence (looked up): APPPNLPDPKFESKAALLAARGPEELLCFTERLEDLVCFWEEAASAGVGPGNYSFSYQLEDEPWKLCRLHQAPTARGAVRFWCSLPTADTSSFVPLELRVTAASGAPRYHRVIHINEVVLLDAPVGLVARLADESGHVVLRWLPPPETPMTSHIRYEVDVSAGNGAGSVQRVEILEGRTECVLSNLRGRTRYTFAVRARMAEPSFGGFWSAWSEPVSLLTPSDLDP
# T2: recombinant EPO-R produced in Chinese Hamster Ovary cells as a fusion protein to a portion of the human … (human, UniProt P19235 25-250)
# T2 sequence (looked up): T1 sequence (looked up)
# B1: Peptide I (SEQ ID NO: 2) (peptide)
# peptide: Ac-GGLYACHMGPIT[1Nal]VCQPLR[Sar]K
# modifications: disulfide 6-15; not fully specified (residue 21); printed as (AcG)GLYACHMGPIT(1-nal)VCQPLR(MeG)K; also: PEGylated homodimer, second copy joined via the branched linker on K21 epsilon-amine, linker, PEG size and linkage not given here
# B2: Peptide II (SEQ ID NO: 3) (peptide)
# peptide: Ac-GGLYACHMGPIT[1Nal]VCQPLR[Sar]
# modifications: disulfide 6-15; not fully specified (C-terminus); printed as (AcG)GLYACHMGPIT(1-nal)VCQPLR(MeG); also: homodimer of two monomers, C-termini joined to alpha- and epsilon-amino groups of a lysine linker with spacer and PEG
# Key:
# [1] = system: human, bone marrow derived CD34+ cells; assay: C/BFU-e assay (erythroid colonies); assay type: cell-based
# Description: EPO-R signaling stimulates the differentiation of bone marrow stem cells into proliferating red blood cell precursors. This assay measures the ability of test peptides to stimulate the proliferation and differentiation of red blood cell precursors from primary human bone marrow pluripotent stem cells.
# For this assay, serial dilutions of test peptide are made in IMDM medium (Gibco) supplemented with 10% FBS (Hyclone). These serial dilutions, or positive control EPO peptide, are then added to methylcellulose to give a final volume of 1.5 mL. The methylcellulose and peptide mixture is then vortexed thoroughly. Aliquots (100,000 cells/mL) of human, bone marrow derived CD34+ cells (Poietics/Cambrex) are thawed. The thawed cells are gently added to 0.1 mL of 1 mg/ml DNAse (Stem Cells) in a 50 mL tube. Next, 40-50 mL IMDM medium is added gently to cells: the medium is added drop by drop along the side of the 50 mL tube for the first 10 mL, and then the remaining volume of medium is slowly dispensed along the side of the tube. The cells are then spun at 900 rpm for 20 min, and the media removed carefully by gentle aspiration. The cells are resuspended in 1 ml of IMDM medium and the cell density per mL is counted on hemacytometer slide (10 μL aliquot of cell suspension on slide, and cell density is the average count×10,000 cells/ml). The cells are then diluted in IMDM medium to a cell density of 15,000 cells/mL. A 100 μL of diluted cells is then added to each 1.5 mL methyl cellulose plus peptide sample (final cell concentration in assay media is 1000 cells/mL), and the mixture is vortexed. Allow the bubbles in the mixture to disappear, and then aspirate 1 mL using blunt-end needle. Add 0.25 mL aspirated mixture from each sample into each of 4 wells of a 24-well plate (Falcon brand). Incubate the plated mixtures at 37° C. under 5% CO2 in a humid incubator for 14 days. Score for the presence of erythroid colonies using a phase microscope (5×-10× objective, final magnification of 100×). The concentration of test peptide at which the number of formed colonies is 90% of maximum, relative to that observed with the EPO positive control, is recorded as the EC90 [See Table 2: C/BFU-e EC90].
# [2] = Pharmacokinetic studies in rats; assay type: in vivo
# [3] = Pharmacokinetic studies in dogs; assay type: in vivo
# [4] = system: erythropoiesis; assay: Pharmacology studies in animals (erythropoiesis); assay type: in vivo, mice, rats, dogs, rabbits and monkeys
# [5] = system: erythropoiesis; assay: Phase 1 study in normal healthy volunteers: pharmacodynamics; assay type: in vivo, human
# Description: (§1) Peptide I has been tested in […] in one Phase 1 study. This first-in-human study with Peptide I was a randomized, double-blind, placebo-controlled, single-dose, IV, escalating dose, safety and tolerability trial. The primary objectives of the study were to evaluate the safety and pharmacokinetics of Peptide I, and to establish a pharmacologically active dose (PAD). Cohorts of seven male volunteers were scheduled to receive single doses of Peptide I or placebo in a 5:2 ratio. Cohorts were to be added at increasing dose levels until a PAD, as determined by an increase in hemoglobin from baseline values, was observed, at which point the dose level identified as the PAD would be repeated in another cohort of volunteers.
# (§2) The study was initiated in four cohorts were enrolled in a consecutive manner at Peptide I doses of 0.025, 0.05, 0.1 mg/kg, and […], respectively (single dose per cohort). […] As such, the study was terminated.
# [6] = Phase 1 study in normal healthy volunteers: pharmacokinetics; assay type: in vivo, human
# Description: as §1, §2
# In the 0.025 mg/kg dose group, Peptide I concentration peaked between 5 and 15 minutes, while tmax approached 1 hour for the 0.1 mg/kg dose.
# [7] = Phase 1 study in normal healthy volunteers: safety; assay type: in vivo, human
# Description: as §1, §2
# [8] = Pharmacokinetic studies in rats, dogs and monkeys (general statements); assay type: in vivo
# [9] = molecular target: T1, Recombinant Human EPO R/Fc Chimera; assay: radioligand competition; competitor: 125I-EPO; EPO R/Fc chimera 100 pg/tube, Protein-G Sepharose pull-down, gamma counting
# [10] = molecular target: T2, recombinant EPO-R produced in Chinese …; assay: AlphaQuest bead proximity competition; competitor: biotinylated tracer peptide SEQ ID NO: 4 (30 nM) on streptavidin donor beads, EPO-R fusion on acceptor beads
# [11] = five-sixth nephrectomy rats, IV 9.87 mg/kg
molecule,measurement,setting,value
"peptide dimer of SEQ ID NO: 2 monomers (AcG)GLYACHMGPIT(1-nal)VCQPLR(MeG)K; a fully synthetic EPO receptor agonist (Ac-GGLYACHMGPIT[1Nal]VCQPLR[Sar]K; disulfide 6-15 (inferred); not fully specified (residue 1); printed as (AcG)GLYACHMGPIT(1-nal)VCQPLR(MeG)K; also: homodimer joined through a branched tertiary amide linker on the Lys21 side chain, PEG carried on the linker) [Peptide I]",EC90,[1]; Table 6,3 nM
same,clearance,[2]; [11],0.763 mL/h/kg
same,t1/2,[2]; [11],approximately 48 hours
same,clearance,[2]; normocythemic rats,1.44 mL/h/kg
same,Elimination half life (t1/2),[2]; rats,21.5 to 30.7 h
same,Elimination half life (t1/2),[3],73.7 h
same,rise in reticulocytes and RBCs as measured by hemoglobin levels,[4]; rats and monkeys,dose proportional
same,stimulation of erythropoiesis,"[4]; single or repeat dose, mice, rats (normocythemic and nephrectomized), dogs, rabbits, monkeys",potent stimulator of erythropoiesis with dose-dependent activity
same,average hemoglobin levels at Day 42,[5]; 0.1 mg/kg,returned to baseline
same,average maximum increase from baseline in hemoglobin,"[5]; 0.1 mg/kg, 10 recipients",1.36 ± 0.39 g/dL
same,difference in change from baseline hemoglobin versus placebo,"[5]; 0.1 mg/kg, at Day 42 as throughout the study",≥ 0.5 g/dL
same,time of maximum reticulocyte counts postdose,[5]; all dose cohorts,approximately 7 days
same,hemoglobin response and change from baseline (mean and maximum),[5]; over 28 days post-dose,dose-dependent increases
same,Reticulocyte count (absolute number and percent),"[5]; single IV 0.025, 0.05, 0.1 mg/kg",dose-dependent increase
same,PAD associated with at least a 1.0 g/dL increase in hemoglobin,"[5]; single IV dose, NHV",0.1 mg/kg
same,Serum EPO levels,[5]; with increasing dose,transiently decreased
same,"Plasma clearance, geometric mean",[6]; 0.025 mg/kg,78.0 mL/h
same,"Volume of distribution, mean",[6]; 0.025 mg/kg,2165 mL
same,"half-life, mean",[6]; 0.025 mg/kg,19.2 h
same,"half-life, range",[6]; 0.025 mg/kg,16.7 to 21.9 h
same,plasma concentrations quantifiable (>25 ng/mL) up to,[6]; 0.025 mg/kg,up to 96 hours
same,"Plasma clearance, geometric mean",[6]; 0.05 mg/kg,70.7 mL/h
same,"Volume of distribution, mean",[6]; 0.05 mg/kg,1903 mL
same,"half-life, mean",[6]; 0.05 mg/kg,18.7 h
same,"half-life, range",[6]; 0.05 mg/kg,15.3 to 25.1 h
same,plasma concentrations quantifiable (>25 ng/mL) up to,[6]; 0.05 mg/kg,≤ 5 days
same,"Plasma clearance, geometric mean",[6]; 0.1 mg/kg,59.2 mL/h
same,"Volume of distribution, mean",[6]; 0.1 mg/kg,2010 mL
same,"half-life, mean",[6]; 0.1 mg/kg,23.5 h
same,"half-life, range",[6]; 0.1 mg/kg,17.7 to 33.1 h
same,plasma concentrations quantifiable (>25 ng/mL) up to,[6]; 0.1 mg/kg,≤ 7 days
same,tmax,[6]; 0.1 mg/kg,~1 h
same,AUC(0-infinity) relationship with dose,"[6]; dose normalized, ANOVA",non-linearity at the highest dose
same,Cmax relationship with dose,"[6]; dose normalized, ANOVA",linear relationship with dose
same,plasma concentration at which metabolic/elimination processes saturate,"[6]; human, in vivo",> 400 ng/mL
same,number of adverse events,[7]; Peptide I group,22
same,AEs considered probably not related to the study drug,[7]; Peptide I recipients,15/22
same,Serious Adverse Events or withdrawals due to an AE,"[7]; human, in vivo",no Serious Adverse Events (SAEs) or withdrawals from the study due to an AE
same,"changes in vital signs, ECGs or laboratory values","[7]; human, in vivo",no clinically significant changes
same,subjects who developed antibodies specific to Peptide I,"[7]; human, in vivo",None
same,overall safety and tolerability,"[7]; single IV doses of 0.025, 0.05 or 0.1 mg/kg",safe and well tolerated
same,abdominal pain,[7]; subjects dosed with Peptide I,10.0%
same,headache,[7]; subjects dosed with Peptide I,20.0%
same,nasopharyngitis,[7]; subjects dosed with Peptide I,10.0%
same,nausea,[7]; subjects dosed with Peptide I,10.0%
same,subjects who experienced adverse events,[7]; subjects receiving Peptide I,11 of 20
same,plasma persistence,[8]; in comparison to currently marketed rHuEPO products,sustained plasma persistence
same,Biodistribution,[8]; in vivo,primarily to the plasma fraction
"peptide dimer of SEQ ID NO: 3 monomers (AcG)GLYACHMGPIT(1-nal)VCQPLR(MeG) [Peptide II] (Ac-GGLYACHMGPIT[1Nal]VCQPLR[Sar]; disulfide 6-15 (inferred); not fully specified (residue 1); printed as (AcG)GLYACHMGPIT(1-nal)VCQPLR(MeG); also: homodimer, C-termini joined to the alpha- and epsilon-amino groups of a lysine linker, spacer and PEG on the linker)",EC90,[1]; Table 2,2.2 nM
"Peptide IV: peptide dimer of SEQ ID NO: 1 monomers (AcG)GLYACHMGPIT(1-nal)VCQPLRK (Ac-GGLYACHMGPIT[1Nal]VCQPLRK; disulfide 6-15 (inferred); not fully specified (residue 1); printed as (AcG)GLYACHMGPIT(1-nal)VCQPLRK; also: homodimer joined through a branched tertiary amide linker on the Lys20 side chain, PEG carried on the linker)",EC90,[1]; Table 4,6.2 nM
"peptide dimer of SEQ ID NO: 3 monomers (AcG)GLYACHMGPIT(1-nal)VCQPLR(MeG) [Peptide III] (Ac-GGLYACHMGPIT[1Nal]VCQPLR[Sar]; disulfide 6-15 (inferred); not fully specified (residue 1); printed as (AcG)GLYACHMGPIT(1-nal)VCQPLR(MeG); also: homodimer, C-termini joined to the alpha- and epsilon-amino groups of a lysine linker, spacer and PEG on the linker)",EC90,[1]; Table 2,2.7 nM
B1,IC50,[9],111 nM
B2,IC50,[10],0.11 nM
